Measurements taken from patent publication US20220363758A1 (SORRENTO THERAPEUTICS, published 2022).
Residue numbers refer to the chain shown, from its start. Names may count otherwise. Where two headings read alike, the source gives them in different places. One block for each binder: values may come before it.

Experiments:
[1] = target: T1, CD3 antigen expressed on cells (human CD3 epsilon) (human, UniProt P07766 23-207); assay: flow cytometry on CD38(-) primary human T cells, mouse anti-human Fc-APC detection, GeoMean RL-H of singlets
T1 construct: also called cell surface CD3 antigen; CD3 on T cells

[2] = target: T2, Recombinant human CD38-his tag (human, UniProt P28907 43-300); assay: SPR (Biacore T200), antibody as captured ligand, CD38 as sample, 1:1 binding model
T2 construct: also called recombinant CD38 antigen; CD38 antigen; not shown: his tag

[3] = target: T1, CD3 antigen expressed on cells (human …); assay: flow cytometry on CD3-bearing cells (cell type not given)
[4] = target: T1, CD3 antigen expressed on cells (human …); assay: flow cytometry on CD38(-) primary human T cells, mouse anti-human Fc-APC detection, GeoMean RL-H of singlets; remark: listed apart in the source

B1: CD38 A2-3H10m1 assembled with CD3-scFv tsm #5 (bispecific antibody, human IgG1, lambda, L234A L235A)
chain: EVQLVQSGAEVKKPGASVKVSCKASGYTFISYTMHWVRQAPGQGLEWMGYINPRSGYTHYNQKLKDRATLTADKSASTAYMELSSLRSEDTAVYYCARSAYYDYDGFAYWGQGTLVTVSSGGGGSGGGGSGGGGSGGGGSDIQMTQSPSSLSASVGDRVTITCSASSSVSYMNWYQQKPGKAPKRLIYDTSKLASGVPSRFSGSGSGTDFTLTISSLQPEDFATYYCQQWSSNPPTFGGGTKVEIKGGSGGDKTHTCPPCPAPEAAGGPSVFLFPPKPKDTLMISRTPEVTCVVVDVSHEDPEVKFNWYVDGVEVHNAKTKPREEQYNSTYRVVSVLTVLHQDWLNGKEYKCKVSNKALPAPIEKTISKAKGQPREPQVYTLPPSREEMTKNQVSLSCAVKGFYPSDIAVEWESNGQPENNYKTTPPVLDSDGSFFLVSKLTVDKSRWQQGNVFSCSVMHEALHNHYTQKSLSLSPGK
heavy: QVQLVESGGGLVKPGGSLRLSCAASGFTFSDDYMSWIRQAPGKGLEWVASVSNGRPTTYYADSVRGRFTISRDNAKNSLYLQMNSLRAEDTAVYYCAREGWSGEFTDWGQGTLVTVSSASTKGPSVFPLAPSSKSTSGGTAALGCLVKDYFPEPVTVSWNSGALTSGVHTFPAVLQSSGLYSLSSVVTVPSSSLGTQTYICNVNHKPSNTKVDKRVEPKSCDKTHTCPPCPAPEAAGGPSVFLFPPKPKDTLMISRTPEVTCVVVDVSHEDPEVKFNWYVDGVEVHNAKTKPREEQYNSTYRVVSVLTVLHQDWLNGKEYKCKVSNKALPAPIEKTISKAKGQPREPQVYTLPPSREEMTKNQVSLWCLVKGFYPSDIAVEWESNGQPENNYKTTPPVLDSDGSFFLYSKLTVDKSRWQQGNVFSCSVMHEALHNHYTQKSLSLSPGK
light: not shown
EC50 (read off the curve) [1]: ~0.1 ng/mL

B2: CD38 D8-3A1/CD3 (M48I/K67R) bispecific antibody (bispecific antibody, human IgG1, lambda, L234A L235A)
chain: B1 chain with M48I
heavy: QVQLVESGGGVVQPGGSLRLSCAASGFNVRTKYVHWVRQAPGKGLEWVSGIYSDPYTSYAYSDSVKGRFTISRDMSKNTVYLQMNRLRAEDTAVYYCARETNTGFSNSWYLDFWGQGTLVTVSSASTKGPSVFPLAPSSKSTSGGTAALGCLVKDYFPEPVTVSWNSGALTSGVHTFPAVLQSSGLYSLSSVVTVPSSSLGTQTYICNVNHKPSNTKVDKRVEPKSCDKTHTCPPCPAPEAAGGPSVFLFPPKPKDTLMISRTPEVTCVVVDVSHEDPEVKFNWYVDGVEVHNAKTKPREEQYNSTYRVVSVLTVLHQDWLNGKEYKCKVSNKALPAPIEKTISKAKGQPREPQVYTLPPSREEMTKNQVSLWCLVKGFYPSDIAVEWESNGQPENNYKTTPPVLDSDGSFFLYSKLTVDKSRWQQGNVFSCSVMHEALHNHYTQKSLSLSPGK
light: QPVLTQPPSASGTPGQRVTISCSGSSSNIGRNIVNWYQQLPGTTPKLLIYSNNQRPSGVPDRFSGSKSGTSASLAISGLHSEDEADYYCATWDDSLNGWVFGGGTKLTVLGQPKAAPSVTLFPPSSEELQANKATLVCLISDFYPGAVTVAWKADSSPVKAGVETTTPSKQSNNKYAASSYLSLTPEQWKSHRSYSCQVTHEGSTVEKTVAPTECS
Kd [2]: 4.95 nM
koff [2]: 0.00393 s⁻¹
kon [2]: 794000 M⁻¹ s⁻¹

B3: CD3-tsm#7 (WT) scFv-Fc fusion (Fc fusion)
chain: B1 chain with R67K
notes: Wild type HuM291 VH; As for CD3-tsm#1: scFv g1 Fc fusion chain; also called wild type Hum291 scFv
EC50 [3]: 0.2 µg/mL

B5: CD3-tsm#1 (M48I/K67R) scFv-Fc fusion (Fc fusion)
chain: B1 chain with M48I
notes: also called CD3 scFv-Fc fusion, VH variant M48I/K67R, tsm #1
EC50 [3]: 0.2 µg/mL

B6: CD3-tsm#2 (I30V/K67R) scFv-Fc fusion (Fc fusion)
chain: B1 chain with I30V
notes: As for CD3-tsm#1: scFv g1 Fc fusion chain
EC50 [3]: 1.5 µg/mL

B10: CD38 A2-3H10m1 assembled with CD3-scFv tsm #2 (bispecific antibody, human IgG1, lambda, L234A L235A)
chain: B1 chain with I30V
heavy: B1 heavy
light: not shown
EC50 (read off the curve) [4]: ~1 ng/mL

B11: CD38 A2-3H10m1 assembled with CD3-scFv tsm #3 (bispecific antibody, human IgG1, lambda, L234A L235A)
chain: B1 chain with M48I, R67K
heavy: B1 heavy
light: not shown
EC50 (read off the curve) [4]: ~0.2 ng/mL

B14: CD38 A2-3H10m1 assembled with CD3-scFv tsm #6 (bispecific antibody, human IgG1, lambda, L234A L235A)
chain: B1 chain with I30V, R67K
heavy: B1 heavy
light: not shown
EC50 (read off the curve) [1]: ~0.1 ng/mL

B15: CD3-tsm#5 (K67R) scFv-Fc fusion (Fc fusion)
chain: B1 chain
notes: as for B6
EC50 [3]: 0.1 µg/mL

B16: CD38 A2-3H10m1 assembled with CD3-scFv tsm #4 (bispecific antibody, human IgG1, lambda, L234A L235A)
chain: B1 chain with I30V, M48I
heavy: B1 heavy
light: not shown
EC50 (read off the curve) [4]: ~0.1 ng/mL

B17: CD3-tsm#3 (M48I) scFv-Fc fusion (Fc fusion)
chain: B1 chain with M48I, R67K
notes: as for B6
EC50 [3]: 0.2 µg/mL

B18: CD3-tsm#6 (I30V) scFv-Fc fusion (Fc fusion)
chain: B1 chain with I30V, R67K
notes: As for CD3-tsm#1: scFv g1 Fc fusion chain; also called CD3-tsm#6 ( (BOV))
EC50 [3]: 0.1 µg/mL

B19: CD3-tsm#4 (I30V/M48I/K67R) scFv-Fc fusion (Fc fusion)
chain: B1 chain with I30V, M48I
notes: as for B6
EC50 [3]: 0.1 µg/mL

Now from value to binder:

Kd [2]: 12.3 nM
koff [2]: 0.00637 s⁻¹
kon [2]: 517000 M⁻¹ s⁻¹
B4: CD38 A2/CD3 (M48I/K67R) bispecific antibody (bispecific antibody, human IgG1, lambda, L234A L235A)
chain: B1 chain with M48I
heavy: B1 heavy with G100D, S102G
light: not shown

Kd [2]: 4.52 nM
koff [2]: 0.00388 s⁻¹
kon [2]: 859000 M⁻¹ s⁻¹
B7: CD38 D8-1B5/CD3 (M48I/K67R) bispecific antibody (bispecific antibody, human IgG1, lambda, L234A L235A)
chain: B1 chain with M48I
heavy: B2 heavy with F27L, V29A, K32N
light: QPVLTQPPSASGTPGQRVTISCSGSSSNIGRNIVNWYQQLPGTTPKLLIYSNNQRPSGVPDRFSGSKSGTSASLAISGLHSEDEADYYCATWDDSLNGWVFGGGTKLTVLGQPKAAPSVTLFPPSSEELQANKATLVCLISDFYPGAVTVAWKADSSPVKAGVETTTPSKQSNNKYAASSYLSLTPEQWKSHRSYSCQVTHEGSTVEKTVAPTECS

Kd [2]: 6.55 nM
koff [2]: 0.00565 s⁻¹
kon [2]: 862000 M⁻¹ s⁻¹
B8: CD38 D8-3E1/CD3 (M48I/K67R) bispecific antibody (bispecific antibody, human IgG1, lambda, L234A L235A)
chain: B1 chain with M48I
heavy: B2 heavy with G26K, F27L, R30S, T31P
light: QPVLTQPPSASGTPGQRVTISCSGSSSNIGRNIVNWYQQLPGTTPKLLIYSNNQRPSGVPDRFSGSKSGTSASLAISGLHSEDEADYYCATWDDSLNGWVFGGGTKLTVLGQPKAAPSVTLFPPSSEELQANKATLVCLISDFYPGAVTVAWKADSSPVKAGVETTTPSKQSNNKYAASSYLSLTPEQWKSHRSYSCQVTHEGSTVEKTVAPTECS
notes: also called CD38 D8-3E1/CD3 (M481/K67R)

EC50 (read off the curve) [1]: ~0.2 ng/mL
B9: CD38 A2-3H10m1 assembled with CD3-scFv tsm #7 (bispecific antibody, human IgG1, lambda, L234A L235A)
chain: B1 chain with R67K
heavy: B1 heavy
light: not shown
notes: tsm #7 carries the wild type HuM291 VH

Kd [2]: 20.3 nM
koff [2]: 0.011 s⁻¹
kon [2]: 541000 M⁻¹ s⁻¹
B12: CD38 D8/CD3 (M48I/K67R) bispecific antibody (bispecific antibody, human IgG1, lambda, L234A L235A)
chain: B1 chain with M48I
heavy: B2 heavy with N28I, R30S, K32N
light: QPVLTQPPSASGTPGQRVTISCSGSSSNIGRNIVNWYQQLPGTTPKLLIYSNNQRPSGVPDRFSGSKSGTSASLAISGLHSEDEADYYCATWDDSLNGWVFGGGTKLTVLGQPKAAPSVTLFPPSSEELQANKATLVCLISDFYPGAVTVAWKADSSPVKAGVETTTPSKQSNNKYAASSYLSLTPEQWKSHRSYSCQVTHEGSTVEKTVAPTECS

Kd [2]: 1.51 nM
koff [2]: 0.00203 s⁻¹
kon [2]: 1.35e+06 M⁻¹ s⁻¹
EC50 (read off the curve) [4]: ~0.2 ng/mL
B13: CD38A2-3H10m1/CD3tsm #1-scFvg1LALA-knob-in-hole bispecific antibody (bispecific antibody, human IgG1, lambda, L234A L235A)
chain: B1 chain with M48I
heavy: B1 heavy
light: not shown
notes: Three chains: anti-CD3 scFv-Fc (hole, LALA), anti-CD38 heavy chain (knob, LALA) and anti-CD38 lambda light chain; also called CD38 A2-3H10m1 assembled with CD3-scFv tsm #1; CD38A2-3H10m1/CD3tsm #1 IgG-scFv

Kd [2]: 9.14 nM
koff [2]: 0.00372 s⁻¹
kon [2]: 406000 M⁻¹ s⁻¹
B20: CD38 D8-3A1/CD3 mAb (antibody, V domains shown)
VH: QVQLVESGGGVVQPGGSLRLSCAASGFNVRTKYVHWVRQAPGKGLEWVSGIYSDPYTSYAYSDSVKGRFTISRDMSKNTVYLQMNRLRAEDTAVYYCARETNTGFSNSWYLDFWGQGTLVTVSS
VL: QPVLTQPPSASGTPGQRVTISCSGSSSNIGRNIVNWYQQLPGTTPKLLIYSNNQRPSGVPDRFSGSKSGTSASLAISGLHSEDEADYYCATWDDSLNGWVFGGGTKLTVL
notes: stands beside the row 'CD38 D8-3A1/CD3 IgG-scFv', so it is another molecule than m27

EC50 (read off the curve) [1]: ~0.008 ng/mL
EC50 (read off the curve) [4]: ~0.02 ng/mL
B21: Hu291 mAb (antibody, V domains shown)
VH: EVQLVQSGAEVKKPGASVKVSCKASGYTFISYTMHWVRQAPGQGLEWMGYINPRSGYTHYNQKLKDKATLTADKSASTAYMELSSLRSEDTAVYYCARSAYYDYDGFAYWGQGTLVTVSS
VL: DIQMTQSPSSLSASVGDRVTITCSASSSVSYMNWYQQKPGKAPKRLIYDTSKLASGVPSRFSGSGSGTDFTLTISSLQPEDFATYYCQQWSSNPPTFGGGTKVEIK
notes: also called Hum291 anti-CD3 mAb; HuM291 mAb
